Measured values: patent publication US20220324970A1 (Janssen / Centocor, published 2022)

Columns and labels:
[1] = target: T1, human pIgR extracellular domain 4-domain 5 (D4-D5) (human, UniProt P01833 350-565); test: BLI: IgA binding to immobilized HIS-tagged hD4-D5
T1 construct: HIS-tagged construct made in HEK293 cells; also called hpIgR domains 4-5
T1 chain: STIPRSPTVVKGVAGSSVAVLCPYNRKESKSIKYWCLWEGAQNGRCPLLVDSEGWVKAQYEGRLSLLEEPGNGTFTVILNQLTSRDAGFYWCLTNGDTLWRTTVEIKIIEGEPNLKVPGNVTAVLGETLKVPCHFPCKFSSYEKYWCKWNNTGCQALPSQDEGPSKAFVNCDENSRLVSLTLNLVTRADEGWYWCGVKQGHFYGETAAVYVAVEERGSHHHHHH

hD3-D4 = target: T2, hD3-D4 (human, UniProt P01833); test: BLI response heat map (0-1.0 nm), HIS-tagged pIgR construct immobilized
T2 construct: HIS-tagged two-domain construct; also called human pIgR extracellular domain 3-domain 4 (D3-D4)
T2 sequence (P01833 240-459 limits assumed): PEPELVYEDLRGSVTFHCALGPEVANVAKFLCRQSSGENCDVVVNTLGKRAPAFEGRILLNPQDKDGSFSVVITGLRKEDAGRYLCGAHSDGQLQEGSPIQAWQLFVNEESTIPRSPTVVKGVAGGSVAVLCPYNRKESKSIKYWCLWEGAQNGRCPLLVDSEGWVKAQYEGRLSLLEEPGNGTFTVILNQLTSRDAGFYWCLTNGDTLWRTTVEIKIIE

hpIgR_D3 = target: T3, hpIgR_D3; test: as above
T3 construct: HIS-tagged construct from HEK293 cells; also called human pIgR extracellular domain 3 (D3); hD3
T3 HIS-tagged domain construct: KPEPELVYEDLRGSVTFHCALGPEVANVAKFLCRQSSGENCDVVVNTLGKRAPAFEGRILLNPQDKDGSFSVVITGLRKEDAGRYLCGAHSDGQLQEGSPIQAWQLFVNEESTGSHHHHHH

hpIgR_D2-D3 = target: T4, hpIgR_D2-D3; test: as above
T4 construct: HIS-tagged construct from HEK293 cells; also called human pIgR extracellular domain 2-domain 3 (D2-D3); hD2-D3
T4 HIS-tagged domain construct: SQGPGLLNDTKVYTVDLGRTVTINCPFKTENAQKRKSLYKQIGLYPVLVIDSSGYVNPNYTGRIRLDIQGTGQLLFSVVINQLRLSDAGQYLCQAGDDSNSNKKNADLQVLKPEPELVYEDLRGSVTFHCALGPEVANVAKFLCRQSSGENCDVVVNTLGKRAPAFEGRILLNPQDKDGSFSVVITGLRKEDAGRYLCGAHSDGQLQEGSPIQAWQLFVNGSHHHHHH

[2] = target: T5, hpIgR domain-1 with teleost fish CDR1 (hD1 tCDR1) (human, UniProt P01833 19-127, limits assumed); test: as above
T5 construct: CDR-swapped hpIgR domain-1 mutant, HIS-tagged, made in HEK293 cells; not shown: HIS tag

[3] = target: T6, hpIgR domain-1 with teleost fish CDR2 (hD1 tCDR2) (human, UniProt P01833 19-127, limits assumed); test: as above
T6 construct: CDR-swapped hpIgR domain-1 mutant, HIS-tagged, made in HEK293 cells; not shown: HIS tag
T6 chain: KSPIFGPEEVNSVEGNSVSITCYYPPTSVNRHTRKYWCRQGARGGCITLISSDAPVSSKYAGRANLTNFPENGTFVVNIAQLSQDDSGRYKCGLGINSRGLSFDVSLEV

[4] = target: T7, human pIgR extracellular domain 2 (D2) (human, UniProt P01833 128-242); test: as above
T7 construct: HIS-tagged construct made in HEK293 cells; also called hpIgR domain 2

[5] = target: T8, human pIgR extracellular domain 5 (D5) (human, UniProt P01833 460-565); test: as above
T8 construct: HIS-tagged construct made in HEK293 cells; also called hpIgR domain 5

[6] = target: T1, human pIgR extracellular domain …; test: BLI: IgA binding to immobilized HIS-tagged hD4-D5; sheet says 'IgA binds hD4-D5 weakly'

B1: recombinant dimeric IgA2 construct (antibody)
heavy: QVQLVQSGAEVKKPGSSVKVSCKSSGGTSNNYAISWVRQAPGQGLDWMGGISPIFGSTAYAQKFQGRVTISADIFSNTAYMELNSLTSEDTAVYFCARHGNYYYYSGMDVWGQGTTVTVSSASPTSPKVFPLSLDSTPQDGNVVVACLVQGFFPQEPLSVTWSESGQNVTARNFPPSQDASGDLYTTSSQLTLPATQCPDGKSVTCHVKHYTNPSQDVTVPCPVPPPPPCCHPRLSLHRPALEDLLLGSEANLTCTLTGLRDASGATFTWTPSSGKSAVQGPPERDLCGCYSVSSVLPGCAQPWNHGETFTCTAAHPELKTPLTANITKSGNTFRPEVHLLPPPSEELALNELVTLTCLARGFSPKDVLVRWLQGSQELPREKYLTWASRQEPSQGTTTFAVTSILRVAAEDWKKGDTFSCMVGHEALPLAFTQKTIDRLAGKPTHVNVSVVMAEVDGTCY
light: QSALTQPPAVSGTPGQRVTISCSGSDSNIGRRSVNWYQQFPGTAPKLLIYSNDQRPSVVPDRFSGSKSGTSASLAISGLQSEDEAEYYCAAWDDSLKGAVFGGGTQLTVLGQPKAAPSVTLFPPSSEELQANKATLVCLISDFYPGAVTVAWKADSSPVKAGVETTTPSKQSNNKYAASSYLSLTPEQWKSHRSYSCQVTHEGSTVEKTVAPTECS
chain: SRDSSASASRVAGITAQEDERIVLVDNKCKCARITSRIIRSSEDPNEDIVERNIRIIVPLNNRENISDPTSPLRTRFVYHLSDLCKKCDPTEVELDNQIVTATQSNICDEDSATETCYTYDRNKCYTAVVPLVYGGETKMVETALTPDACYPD
notes: No sentence says outright that they are the dIgA2 of the assays; also called dIgA2; dIgA
koff [1]: 0.0801 s⁻¹
kon [1]: 78400 M⁻¹ s⁻¹
binding result (hD3-D4): no binding
binding result (hpIgR_D3): no binding
binding result (hpIgR_D2-D3): no binding
binding result [2]: no binding
binding result [3]: no binding
binding result [4]: no binding
binding result [5]: no binding
Kd [6]: 1000 nM
